Source: patent US20170281788A1

Target: insulin receptor (IR-B), P06213
Experiment: cell-based or functional assay

B1: GLP-1/insulin fusion GLP-DP8 (ligand)
chain: HAEGTFTSDVSSYLEEQAAREFIAWLVRGRGGPEHLCGAHLVDALYLVCGDRGFYFNDRGAGSSSRRGIVDECCHRSCDLRRLENYCN
  potency (activity at the insulin subtype B receptor): 9.9
